Measurements reported in patent US20240029824A1 (University of Washington, published 2024).
Positions count from the first letter of the chain named. One block for each binder: values may come before it.

Experiments:
[1] = target: T1, DHT03_2arm_A21/Bt18/C chain B; experiment: co-expression, SEC, native MS, SAXS; chains of one ABC heterotrimer
T1 chain: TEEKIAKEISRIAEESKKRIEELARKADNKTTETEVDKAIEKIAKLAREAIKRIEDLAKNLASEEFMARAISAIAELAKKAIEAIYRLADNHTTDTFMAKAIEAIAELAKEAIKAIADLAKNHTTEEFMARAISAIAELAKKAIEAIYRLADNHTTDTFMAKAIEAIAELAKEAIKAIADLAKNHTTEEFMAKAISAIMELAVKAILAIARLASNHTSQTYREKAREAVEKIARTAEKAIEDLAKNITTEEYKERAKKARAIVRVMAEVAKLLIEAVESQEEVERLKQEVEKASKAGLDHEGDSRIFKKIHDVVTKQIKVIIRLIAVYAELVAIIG

[2] = target: T2, DHT03_2arm_A21/B62/C chain B; experiment: as above
T2 chain: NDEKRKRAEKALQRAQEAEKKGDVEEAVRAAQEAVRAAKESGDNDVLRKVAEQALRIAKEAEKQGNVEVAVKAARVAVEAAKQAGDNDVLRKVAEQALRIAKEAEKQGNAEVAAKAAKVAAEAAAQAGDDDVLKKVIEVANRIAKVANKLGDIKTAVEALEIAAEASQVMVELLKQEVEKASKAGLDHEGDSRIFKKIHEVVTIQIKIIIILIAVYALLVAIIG

[3] = target: T3, DHT03 chain C (SEQ ID NO: 65); experiment: as above
T3 chain: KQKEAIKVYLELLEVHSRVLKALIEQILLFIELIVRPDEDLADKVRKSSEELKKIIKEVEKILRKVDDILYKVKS

[4] = target: T4, DHT03_2arm_A21/B14/C chain B; experiment: as above
T4 chain: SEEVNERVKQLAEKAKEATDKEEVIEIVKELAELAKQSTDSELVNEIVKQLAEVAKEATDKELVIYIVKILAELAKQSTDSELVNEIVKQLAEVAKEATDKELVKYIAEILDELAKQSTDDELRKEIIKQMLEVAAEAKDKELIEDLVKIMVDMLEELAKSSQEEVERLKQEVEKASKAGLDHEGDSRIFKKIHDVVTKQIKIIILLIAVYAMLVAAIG

[5] = target: T5, DHT03_3arm_A21/B21/C59 chain C; experiment: individually purified chains mixed 1:1:1, heat annealed, SEC
T5 chain: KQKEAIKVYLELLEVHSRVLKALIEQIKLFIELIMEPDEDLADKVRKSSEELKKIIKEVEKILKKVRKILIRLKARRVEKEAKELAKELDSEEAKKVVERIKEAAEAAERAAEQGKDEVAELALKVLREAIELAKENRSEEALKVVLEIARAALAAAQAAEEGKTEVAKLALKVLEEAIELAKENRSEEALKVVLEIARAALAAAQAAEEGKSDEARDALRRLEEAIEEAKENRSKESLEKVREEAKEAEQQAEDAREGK
Excerpt: (§1) To test this idea, an equimolar amount of individually purified A, B, and C of DHT03_2arm_A21/B21/C were mixed together and run through an annealing protocol (see Methods) to allow these interfaces to reassemble in the presence of all components. A monodisperse SEC peak was observed belonging to the ABC heterotrimer state as confirmed by overlap with its SEC co-expressed tricistronic version (FIG. 3d). To explore the use of this approach for building, four different repeat protein fusions to chain C were annealed in the same manner and all four 3-arm heterotrimers were successfully reconstituted. […] The successful reconstitution of these ABC assemblies, following the independent expression and purification of each chain and explicit mixing at a 1:1:1 ratio, enables their use in conjunction with other de novo proteins to mediate the specific assembly of multi-component assemblies. Independent expression also has considerable advantages over tricistronic expression from a gene synthesis perspective as DNA becomes much more difficult and expensive to synthesize with increasing construct size.
(§2) To test whether the DHT03 components could properly assemble in the presence of other helical hairpin containing chains, as would be the case for more complex assemblies, we chose DHD131, a designed helical hairpin unit heterodimer containing buried hydrogen bond networks¹². […] We evaluated simultaneous reconstitution of DHD131 and DHT03_3arm_A21/B21/C82, since the size difference between the two constructs (if correctly assembled) should be detected by SEC. We separately expressed and individually purified the two chains of the heterodimer and the three chains of the heterotrimer, mixed them at a 1:1:1:1:1 ratio, and carried out annealing and SEC as described above.

[6] = target: T6, DHT03_3arm_A21/B21/C82 chain C; experiment: as above
T6 construct: also called chain C DHR82 fusion; chain C of C3-DHT03-01-DHR82 and C4-DHT03-01-DHR82
T6 chain: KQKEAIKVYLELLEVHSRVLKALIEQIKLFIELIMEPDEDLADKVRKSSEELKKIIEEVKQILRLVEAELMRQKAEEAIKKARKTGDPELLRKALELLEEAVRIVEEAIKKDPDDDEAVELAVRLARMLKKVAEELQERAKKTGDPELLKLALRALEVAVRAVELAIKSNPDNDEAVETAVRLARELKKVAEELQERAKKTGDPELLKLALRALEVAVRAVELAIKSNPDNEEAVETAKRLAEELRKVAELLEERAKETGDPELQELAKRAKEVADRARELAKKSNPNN
Excerpt: as §1, §2

[7] = target: T7, DHT03_3arm_A21/B21/C62 chain C; experiment: as above
T7 chain: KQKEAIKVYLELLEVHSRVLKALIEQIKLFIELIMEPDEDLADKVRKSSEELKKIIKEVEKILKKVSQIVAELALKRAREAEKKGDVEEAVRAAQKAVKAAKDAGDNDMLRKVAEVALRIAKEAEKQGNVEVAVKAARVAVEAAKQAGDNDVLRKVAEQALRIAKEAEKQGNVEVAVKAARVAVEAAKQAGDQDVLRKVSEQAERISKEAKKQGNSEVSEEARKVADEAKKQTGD
Excerpt: as §1, §2

[8] = target: T8, DHT03_3arm chain B (B21, SEQ ID NO: 73); experiment: as above
T8 construct: separately expressed with an N- or C-terminal 6xHis-tag
T8 chain: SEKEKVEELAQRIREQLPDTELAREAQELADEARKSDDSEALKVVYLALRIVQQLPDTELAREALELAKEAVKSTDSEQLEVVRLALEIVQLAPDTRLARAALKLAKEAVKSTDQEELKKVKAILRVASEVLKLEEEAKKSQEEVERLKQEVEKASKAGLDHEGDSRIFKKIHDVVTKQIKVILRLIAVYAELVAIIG
Excerpt: as §1, §2

[9] = target: T9, DHT03_3arm_A21/B21/C53 chain C; experiment: as above
T9 chain: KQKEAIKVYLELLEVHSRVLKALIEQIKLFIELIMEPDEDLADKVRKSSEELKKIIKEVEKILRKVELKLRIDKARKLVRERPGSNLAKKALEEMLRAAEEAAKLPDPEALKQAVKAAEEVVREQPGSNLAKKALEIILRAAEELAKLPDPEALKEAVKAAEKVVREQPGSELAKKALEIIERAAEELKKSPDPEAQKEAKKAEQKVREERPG
Excerpt: as §1, §2

[10] = target: T10, DHT03_2arm_A21/B21/C long chain B; experiment: co-expression, SEC, native MS, SAXS; chains of one ABC heterotrimer
T10 chain: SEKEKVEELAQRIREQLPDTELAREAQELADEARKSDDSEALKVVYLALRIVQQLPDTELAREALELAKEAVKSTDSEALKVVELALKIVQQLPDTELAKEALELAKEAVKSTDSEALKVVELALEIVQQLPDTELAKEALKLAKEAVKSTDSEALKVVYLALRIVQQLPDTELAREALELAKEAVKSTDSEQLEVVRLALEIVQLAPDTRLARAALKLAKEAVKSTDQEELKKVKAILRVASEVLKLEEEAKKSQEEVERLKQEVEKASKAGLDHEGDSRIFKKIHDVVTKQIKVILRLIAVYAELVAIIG

[11] = target: T11, DHT03 chain C (SEQ ID NO: 59); experiment: X-ray crystal structure, 3.35 A
T11 chain: T3 chain with L28K, V35M, R36E, Y71E
Description: Purified DHT03_2arm_A21/B21/C (long) protein at a concentration of 41 mg/mL was used to conduct sitting drop, vapor-diffusion crystallization trials using the JCSG Core I-IV screens (NeXtal Biotechnologies). Crystals of DHT03_2arm_A21/B21/C long grew from drops consisting of 100 nL protein plus 100 nL of a reservoir solution consisting of 2M (NH4)2SO4, 0.1M sodium acetate pH4.6 at 18° C., and were cryoprotected by supplementing the reservoir solution with 2.2M sodium malonate pH5. Native diffraction data was collected at APS beamline APS-23-ID-B, indexed to P1 and reduced using XDS⁴⁸. The structure was phased by molecular replacement using Phaser™. The chain A of a set of ˜49 lowest energy predicted models from Rosetta™ were used as search models. Several of these models gave clear solutions. Chain B and Chain C were fitted manually in Coot™ and rigid body refinement by Phenix™. The following model building and refinement were done by Coot™ and Phenix™.

[12] = target: T11, DHT03 chain C (SEQ ID NO: 59); experiment: tricistronic expression, SEC, native MS; chains of one ABC heterotrimer
Excerpt: Genes encoding 85 heterotrimers in a tricistronic expression vector were obtained, and the proteins were expressed in E. coli and purified via IMAC with only one chain having the 6×His-tag. Nine of the designs (FIG. 3a) had monodisperse SEC peaks (FIG. 3b), were almost exclusively ABC by nMS, and had good SAXS fits to the design models (Table 7). […] Eight of the designs are parallel heterotrimers, while DHTO9 is an antiparallel heterotrimer. […] For 3 other designs, only the ABC heterotrimer was determined to form by nMS (when the respective SEC fraction was analyzed) but the heterotrimer SEC peak was preceded by soluble aggregate that would make building with these constructs difficult downstream. We explored the dependence of cooperativity on connectivity between the three chains by changing the positions of the loops across different helices in DHT03, while keeping the rest of the interface intact. […] The ability to sustain alternate loop closures increases the number of heteromeric building blocks available for future nanostructure assembly applications and may enable rigid fusion of functional domains to the different termini available.
Samples were analyzed by online buffer exchange native mass spectrometry (nMS) to evaluate sample purity and accurately determine oligomeric states⁴². […]

[13] = target: T12, DHT03_variant_ABCD-1 chain D; experiment: native MS; loop-connectivity variant of DHT03, chains of one ABCD heterotetramer
T12 chain: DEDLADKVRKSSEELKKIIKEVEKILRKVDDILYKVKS

B1: DHT03 A21 fusion chain A (SEQ ID NO: 63) (designed binder)
chain: SEKEKVEELAQRIREQLPDTELAREAQELADEARKSDDSEALKVVYLALRIVQQLPDTELAREALELAKEAVKSTDSEALKVVYLALRIVQQLPDTELARLALELAKKAVEMTAQEVLEIAKAALKAAQAFPNTELAELMLRLAEVAARVMKELERNDEEIKKSDELDDESLLEDIVELLKEIIKLWKILVEVSDVMLKLIS
- binding result [1]: binds
- binding result [2]: binds
- binding result [3]: binds

B2: DHT03 A21 fusion chain A (SEQ ID NO: 66) (designed binder)
chain: B1 chain with E119A
- binding result [4]: binds

B3: DHT03_3arm chain A (A21, SEQ ID NO: 72) (designed binder)
chain: B1 chain with E119A, E170A, E174A, E178R, K181A
notes: separately expressed with an N- or C-terminal 6xHis-tag
- binding result [5]: binds
- binding result [6]: binds
- binding result [7]: binds
- binding result [8]: binds
- binding result [9]: binds

Next, values leading:

- binding result [10]: binds
- binding result [11]: binds
B4: DHT03_2arm_A21/B21/C long chain A (designed binder)
chain: SEKEKVEELAQRIREQLPDTELAREAQELADEARKSDDSEALKVVYLALRIVQQLPDTELAREALELAKEAVKSTDSEALKVVELALKIVQQLPDTELAKEALKLAKEAVKSTDSEALKVVELALEIVQQLPDTELAKEALELAEEAVKSTDSEALKVVKLALEIVQQLPDTELAREALELAKEAVKSTDSEALKVVYLALRIVQQLPDTELARLALELAKKAVEMTAQEVLEIARAALKAAQAFPNTELAELMLRLAEVAARVMKELERNDEEIKKSDELDDESLLEDIVELLKEIIKLWKILVEVSDVMLKLIS

- binding result [12]: binds
- binding result [13]: binds
B5: DHT03 chain A (designed binder)
chain: PEEEKLKELLKELKKVLDRLKKILERNDEEIKKSDELDDESLLEDIVELLKEIIKLWKILVELSDILLKLIS
